System: α4β7 integrin binding to MAdCAM-1
Test: Competitive inhibition of binding of α4β7 on RPMI8866 cells to MAdCAM-1 by peptides, viruses, IMCs and controls
Assay type: cell-based, human
Conditions: for % Inhibition ± SD of α4β7 integrin binding to MAdCAM-1: average of 3–7 experiments in triplicate
Experimental: 96-well plates were coated with MAdCAM-1 as described above. RPMI8866 cells (2 X 10^6/ ml) were incubated with cyclic V2 or V3 MN, TH023, or acute subtype C (C-6980v0c22) peptides or with scrambled flanking region (SFL) or the mid region (SMR) TH023 V2 or with a completely scrambled (SCR) TH023 peptide (10 μg/ml) for 45 minutes at 37°C before being added in triplicate to the MAdCAM-1 coated plates for 1 hour at 37°C. In concurrent experiments, RMI8866 cells were incubated with purified primary HIV-1 (0.75 ng to 6 ng/well p24) subtype B (SF162, US-1, JRFL), subtype CRF01_AE viruses (92TH023), IMCs (0.75 ng to 1000 ng/well p24 in each case) containing acute or chronic envelopes (Acute CRF01_AE (703357) [GenBank:JN944658], C (C-6980v0c22) [GenBank:HM215344], A(851891); Chronic CRF01_AE (CM235.2) [AF259954.1], C (ET02220LucR) [U46016]) or with pSG3Δenv. pSG3Δenv contained a four-nucleotide insertion mutation (CTAG) in Env, leading to a translation stop codon after amino acid residue 142. The pSG3Δenv clone is routinely used for generating Env pseudotyped infectious virions.
Viruses were tested in triplicate in two independent experiments. In additional experiments, mannose, HIV-1 p24, and ovalbumin (0.2–10 μg/ml) were used in the competition assay as nonspecific protein controls (data in Table 2; 3–7 experiments performed in triplicate), whereas, an anti-RSV mAb, Synagis® was used as a nonspecific antibody control. Synagis® was incubated for 45 minutes with either MAdCAM-1 or with RPMI8866 cells and then placed in the assay system. The remainder of the assay was similar to that described above. Significance was determined by paired Student’s t test.

B1: Ovalbumin: nonspecific protein control (protein)
chain: MGSIGAASMEFCFDVFKELKVHHANENIFYCPIAIMSALAMVYLGAKDSTRTQINKVVRFDKLPGFGDSIEAQCGTSVNVHSSLRDILNQITKPNDVYSFSLASRLYAEERYPILPEYLQCVKELYRGGLEPINFQTAADQARELINSWVESQTNGIIRNVLQPSSVDSQTAMVLVNAIVFKGLWEKAFKDEDTQAMPFRVTEQESKPVQMMYQIGLFRVASMASEKMKILELPFASGTMSMLVLLPDEVSGLEQLESIINFEKLTEWTSSNVMEERKIKVYLPRMKMEEKYNLTSVLMAMGITDVFSSSANLSGISSAESLKISQAVHAAHAEINEAGREVVGSAEAGVDAASVSEEFRADHPFLFCIKHIATNAVLFFGRCVSP
% Inhibition ± SD of α4β7 integrin binding to MAdCAM-1 (0.2 μg/ml): 7.2 ± 12.5%
% Inhibition ± SD of α4β7 integrin binding to MAdCAM-1 (1.0 μg/ml): 2.0 ± 3.5%
% Inhibition ± SD of α4β7 integrin binding to MAdCAM-1 (5 μg/ml): 13.6 ± 11.8%
% Inhibition of α4β7 integrin binding to MAdCAM-1 (10 μg/ml, average of triplicate determinations from a single experiment): 18%
Inhibition of α4β7 integrin binding to MAdCAM-1 by nonspecific controls (in words) (0.2–10 μg/ml): no significant inhibition

Reference: article PMC4666614, “Identification of New Regions in HIV-1 gp120 Variable 2 and 3 Loops that Bind to α4β7 Integrin Receptor” (PLoS ONE, 2015)
